Experimental data from article PMC2443653.

Target: rPrP23-231 (full-length mature recombinant prion protein) (mouse, UniProt P04925 23-231)
Assay: fluorescence anisotropy

Chain of rPrP23-231 (full-length mature recombinant prion protein) (P04925 23-231): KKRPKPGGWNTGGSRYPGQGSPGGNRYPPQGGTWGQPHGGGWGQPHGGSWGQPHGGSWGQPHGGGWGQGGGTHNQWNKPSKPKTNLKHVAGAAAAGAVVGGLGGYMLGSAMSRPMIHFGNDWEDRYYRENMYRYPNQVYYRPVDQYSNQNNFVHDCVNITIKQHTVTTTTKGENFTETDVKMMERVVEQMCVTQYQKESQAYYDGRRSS

B1: opRNA (structured_RNA)
RNA: AAACAUGGGUUCCCAUGU
- binding result: binds
